PMC10397247

What was measured:
[1] = target: T1, 4H2330-AA; test: two-hybrid library CCmax;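 further: natural log of median RNA to DNA barcode read ratio; higher means stronger binding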
T1 chain: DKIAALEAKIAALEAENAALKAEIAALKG

[2] = target: T2, 4H2343-AA; test: two-hybrid library CCmax; conditions: mean of both orientations;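 further: natural log of median RNA to DNA barcode read ratio; higher means stronger binding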
T2 chain: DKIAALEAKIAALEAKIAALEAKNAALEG

[3] = target: T3, 4H2389-AA; test: two-hybrid library CCmax; conditions: mean of both orientations;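 further: natural log of median RNA to DNA barcode read ratio; higher means stronger binding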
T3 chain: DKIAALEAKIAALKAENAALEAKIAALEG

[4] = target: T4, 4H2438-AA; test: two-hybrid library CCmax; conditions: mean of both orientations;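 further: natural log of median RNA to DNA barcode read ratio; higher means stronger binding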
T4 chain: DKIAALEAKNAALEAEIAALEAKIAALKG

[5] = target: T5, 4H2466-AA; test: two-hybrid library CCmax; conditions: mean of both orientations
T5 chain: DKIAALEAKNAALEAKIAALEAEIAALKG

[6] = target: T6, 4H2473-AA; test: two-hybrid library CCmax; conditions: mean of both orientations
T6 chain: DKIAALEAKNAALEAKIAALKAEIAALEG

[7] = target: T7, 4H249-AA; test: two-hybrid library CCmax; conditions: mean of both orientations
T7 chain: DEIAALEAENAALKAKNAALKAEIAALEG

[8] = target: T8, 4H2592-AA; test: two-hybrid library CCmax; conditions: mean of both orientations
T8 chain: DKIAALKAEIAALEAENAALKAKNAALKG

[9] = target: T9, 4H2649-AA; test: two-hybrid library CCmax; conditions: mean of both orientations
T9 chain: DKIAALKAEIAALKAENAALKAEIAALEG

[10] = target: T10, 4H2698-AA; test: two-hybrid library CCmax; conditions: mean of both orientations
T10 chain: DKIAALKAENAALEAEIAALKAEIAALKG

[11] = target: T11, 4H2725-AA; test: two-hybrid library CCmax; conditions: mean of both orientations
T11 chain: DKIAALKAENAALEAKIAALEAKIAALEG

[12] = target: T12, 4H2732-AA; test: two-hybrid library CCmax; conditions: mean of both orientations
T12 chain: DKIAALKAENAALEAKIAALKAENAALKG

[13] = target: T13, 4H2774-AA; test: two-hybrid library CCmax; conditions: mean of both orientations
T13 chain: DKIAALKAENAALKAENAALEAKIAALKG

[14] = target: T14, 4H2865-AA; test: two-hybrid library CCmax; conditions: mean of both orientations
T14 chain: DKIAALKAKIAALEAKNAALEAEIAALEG

[15] = target: T15, 4H2931-AA; test: two-hybrid library CCmax; conditions: mean of both orientations
T15 chain: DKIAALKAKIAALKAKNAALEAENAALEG

[16] = target: T16, 4H3001-AA; test: two-hybrid library CCmax; conditions: mean of both orientations
T16 chain: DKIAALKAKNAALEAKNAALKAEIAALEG

[17] = target: T17, 4H3009-AA; test: two-hybrid library CCmax; conditions: mean of both orientations
T17 chain: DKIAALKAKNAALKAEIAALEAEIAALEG

[18] = target: T18, 4H3015-AA; test: two-hybrid library CCmax; conditions: mean of both orientations
T18 chain: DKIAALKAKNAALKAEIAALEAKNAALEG

[19] = target: T19, 4H3016-AA; test: two-hybrid library CCmax; conditions: mean of both orientations
T19 chain: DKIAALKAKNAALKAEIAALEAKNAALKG

[20] = target: T20, 4H3073-AA; test: two-hybrid library CCmax; conditions: mean of both orientations
T20 chain: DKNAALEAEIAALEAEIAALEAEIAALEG

[21] = target: T21, 4H310-AA; test: two-hybrid library CCmax; conditions: mean of both orientations
T21 chain: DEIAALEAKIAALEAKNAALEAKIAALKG

[22] = target: T22, 4H3120-AA; test: two-hybrid library CCmax; conditions: mean of both orientations
T22 chain: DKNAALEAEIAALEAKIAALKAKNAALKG

[23] = target: T23, 4H3130-AA; test: two-hybrid library CCmax; conditions: mean of both orientations
T23 chain: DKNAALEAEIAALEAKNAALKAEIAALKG

[24] = target: T24, 4H3165-AA; test: two-hybrid library CCmax; conditions: mean of both orientations
T24 chain: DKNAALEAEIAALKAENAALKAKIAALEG

[25] = target: T25, 4H3381-AA; test: two-hybrid library CCmax; conditions: mean of both orientations
T25 chain: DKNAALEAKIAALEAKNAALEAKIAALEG

[26] = target: T26, 4H3395-AA; test: two-hybrid library CCmax; conditions: mean of both orientations
T26 chain: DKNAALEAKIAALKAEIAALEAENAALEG

[27] = target: T27, 4H3410-AA; test: two-hybrid library CCmax; conditions: mean of both orientations
T27 chain: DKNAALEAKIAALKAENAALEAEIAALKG

[28] = target: T28, 4H3438-AA; test: two-hybrid library CCmax; conditions: mean of both orientations
T28 chain: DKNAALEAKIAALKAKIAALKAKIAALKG

[29] = target: T29, 4H347-AA; test: two-hybrid library CCmax; conditions: mean of both orientations
T29 chain: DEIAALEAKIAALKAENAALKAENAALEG

[30] = target: T30, 4H3590-AA; test: two-hybrid library CCmax; conditions: mean of both orientations
T30 chain: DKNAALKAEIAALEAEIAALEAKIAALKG

[31] = target: T31, 4H3697-AA; test: two-hybrid library CCmax; conditions: mean of both orientations
T31 chain: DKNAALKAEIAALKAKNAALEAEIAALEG

[32] = target: T32, 4H3753-AA; test: two-hybrid library CCmax; conditions: mean of both orientations
T32 chain: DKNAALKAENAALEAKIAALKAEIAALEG

[33] = target: T33, 4H3865-AA; test: two-hybrid library CCmax; conditions: mean of both orientations
T33 chain: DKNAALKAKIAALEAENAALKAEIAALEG

[34] = target: T34, 4H406-AA; test: two-hybrid library CCmax; conditions: mean of both orientations
T34 chain: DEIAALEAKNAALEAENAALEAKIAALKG

[35] = target: T35, 4H452-AA; test: two-hybrid library CCmax; conditions: mean of both orientations
T35 chain: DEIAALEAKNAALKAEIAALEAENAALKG

[36] = target: T36, 4H458-AA; test: two-hybrid library CCmax; conditions: mean of both orientations
T36 chain: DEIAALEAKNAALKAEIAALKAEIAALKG

[37] = target: T37, 4H485-AA; test: two-hybrid library CCmax; conditions: mean of both orientations
T37 chain: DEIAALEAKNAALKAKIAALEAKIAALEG

[38] = target: T38, 4H536-AA; test: two-hybrid library CCmax; conditions: mean of both orientations
T38 chain: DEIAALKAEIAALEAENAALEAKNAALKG

[39] = target: T39, 4H56-AA; test: two-hybrid library CCmax; conditions: mean of both orientations
T39 chain: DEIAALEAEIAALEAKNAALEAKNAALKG

[40] = target: T40, 4H570-AA; test: two-hybrid library CCmax; conditions: mean of both orientations
T40 chain: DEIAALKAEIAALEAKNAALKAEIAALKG

[41] = target: T41, 4H629-AA; test: two-hybrid library CCmax; conditions: mean of both orientations
T41 chain: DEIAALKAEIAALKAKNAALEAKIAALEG

[42] = target: T42, 4H710-AA; test: two-hybrid library CCmax; conditions: mean of both orientations
T42 chain: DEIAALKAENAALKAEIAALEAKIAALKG

[43] = target: T43, 4H745-AA; test: two-hybrid library CCmax; conditions: mean of both orientations
T43 chain: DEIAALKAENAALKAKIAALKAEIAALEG

[44] = target: T44, 4H797-AA; test: two-hybrid library CCmax; conditions: mean of both orientations
T44 chain: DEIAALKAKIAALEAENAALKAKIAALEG

[45] = target: T45, 4H850-AA; test: two-hybrid library CCmax; conditions: mean of both orientations
T45 chain: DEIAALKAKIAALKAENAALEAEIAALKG

[46] = target: T46, 4H891-AA; test: two-hybrid library CCmax; conditions: mean of both orientations
T46 chain: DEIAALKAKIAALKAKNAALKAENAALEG

[47] = target: T47, 4H909-AA; test: two-hybrid library CCmax; conditions: mean of both orientations
T47 chain: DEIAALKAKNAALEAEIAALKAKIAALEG

[48] = target: T48, 4H930-AA; test: two-hybrid library CCmax; conditions: mean of both orientations
T48 chain: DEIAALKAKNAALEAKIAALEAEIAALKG

[49] = target: T49, 4H94-AA; test: two-hybrid library CCmax; conditions: mean of both orientations
T49 chain: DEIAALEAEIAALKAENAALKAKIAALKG

[50] = target: T50, 4H_APH; test: two-hybrid library CCmax; conditions: mean of both orientations
T50 chain: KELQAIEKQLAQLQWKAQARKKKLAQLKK

[51] = target: T51, 4H_BCR; test: two-hybrid library CCmax; conditions: mean of both orientations
T51 chain: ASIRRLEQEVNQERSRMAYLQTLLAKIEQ

[52] = target: 4H_GCN4; test: two-hybrid library CCmax; conditions: mean of both orientations
[53] = target: GCN2_T; test: two-hybrid library CCmax; conditions: mean of both orientations
[54] = target: T52, 4H3606-bH; test: two-hybrid library CCNG1; conditions: mean of both orientations
T52 chain: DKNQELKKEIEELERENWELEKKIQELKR

[55] = target: T53, 4H370-bH; test: two-hybrid library CCNG1
T53 chain: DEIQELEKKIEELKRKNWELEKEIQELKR

[56] = target: T54, 4H3782-bH; test: two-hybrid library CCNG1
T54 chain: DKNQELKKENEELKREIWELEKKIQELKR

[57] = target: T55, 4H3843-bH; test: two-hybrid library CCNG1
T55 chain: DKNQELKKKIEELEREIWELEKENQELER

[58] = target: T56, 4H4001-bH; test: two-hybrid library CCNG1
T56 chain: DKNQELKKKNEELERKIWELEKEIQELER

[59] = target: T57, 4H462-bH; test: two-hybrid library CCNG1
T57 chain: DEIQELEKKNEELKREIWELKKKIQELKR

[60] = target: T58, 4H568-bH; test: two-hybrid library CCNG1
T58 chain: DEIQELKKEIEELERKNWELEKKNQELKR

[61] = target: T59, 4H607-bH; test: two-hybrid library CCNG1
T59 chain: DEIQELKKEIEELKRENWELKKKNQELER

[62] = target: T60, 4H687-bH; test: two-hybrid library CCNG1
T60 chain: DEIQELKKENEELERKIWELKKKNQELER

[63] = target: T61, 4H72-bH; test: two-hybrid library CCNG1
T61 chain: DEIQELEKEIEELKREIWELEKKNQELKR

[64] = target: T62, 4H797-bH; test: two-hybrid library CCNG1
T62 chain: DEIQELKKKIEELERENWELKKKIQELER

[65] = target: T63, 4H883-bH; test: two-hybrid library CCNG1
T63 chain: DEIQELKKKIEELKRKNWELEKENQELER

[66] = target: T64, 4H918-bH; test: two-hybrid library CCNG1
T64 chain: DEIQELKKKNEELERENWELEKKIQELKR

[67] = target: T65, 4H953-bH; test: two-hybrid library CCNG1
T65 chain: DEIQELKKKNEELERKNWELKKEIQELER

[68] = target: T66, 4H967-bH; test: two-hybrid library CCNG1
T66 chain: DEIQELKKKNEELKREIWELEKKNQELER

Chain of 4H_GCN4 (chain, as listed by the source): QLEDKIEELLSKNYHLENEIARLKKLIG

B1: 4H2330-AA (peptide)
chain: DKIAALEAKIAALEAENAALKAEIAALKG
interaction score [1]: 2.14 | interaction score [2]: -1.3 | interaction score [3]: -0.00244 | interaction score [4]: -0.853 | interaction score [5]: -1.14 | interaction score [6]: -0.502 | interaction score [7]: -1.48 | interaction score [8]: -0.144 | interaction score [9]: 0.31 | interaction score [10]: -1.05 | interaction score [11]: -1.57 | interaction score [12]: -1.45 | interaction score [13]: -1.55 | interaction score [14]: -0.443 | interaction score [15]: -1.63 | interaction score [16]: -1.21 | interaction score [17]: -1.35 | interaction score [18]: -1.54 | interaction score [19]: -1.44 | interaction score [20]: -1.5 | interaction score [21]: -0.633 | interaction score [22]: -1.29 | interaction score [23]: 0.306 | interaction score [24]: -1.39 | interaction score [25]: -1.67 | interaction score [26]: -1.56 | interaction score [27]: 0.287 | interaction score [28]: -1.59 | interaction score [29]: -0.642 | interaction score [30]: -1.06 | interaction score [31]: -1.56 | interaction score [32]: -1.31 | interaction score [33]: 0.945 | interaction score [34]: -0.544 | interaction score [35]: -1.85 | interaction score [36]: -1.07 | interaction score [37]: -1.35 | interaction score [38]: -1.33 | interaction score [39]: -1.47 | interaction score [40]: 0.717 | interaction score [41]: -1.21 | interaction score [42]: -1.49 | interaction score [43]: -1.42 | interaction score [44]: -0.788 | interaction score [45]: 1.43 | interaction score [46]: -1.54 | interaction score [47]: -1.17 | interaction score [48]: -1.22 | interaction score [49]: 0.579 | interaction score [50]: -2.24 | interaction score [51]: -2.26 | interaction score [52]: -1.88 | interaction score [53]: -1.77

B2: 4H3606-bH (peptide)
chain: DKNQELKKEIEELERENWELEKKIQELKR
interaction score [54]: -0.593 | interaction score [55]: 1.69 | interaction score [56]: -0.967 | interaction score [57]: 0.511 | interaction score [58]: 0.174 | interaction score [59]: -0.116 | interaction score [60]: 1.11 | interaction score [61]: -0.729 | interaction score [62]: -0.48 | interaction score [63]: -0.306 | interaction score [64]: -0.0905 | interaction score [65]: 0.484 | interaction score [66]: -0.633 | interaction score [67]: -1.36 | interaction score [68]: 1.21
